According to IntAct's records for PubMed 19081057:

B1: E3 ubiquitin-protein ligase pellino homolog 2 (Homo sapiens), Q9HAT8 (parent)
chain: MFSPGQEEHCAPNKEPVKYGELVVLGYNGALPNGDRGRRKSRFALYKRPKANGVKPSTVHVISTPQASKAISCKGQHSISYTLSRNQTVVVEYTHDKDTDMFQVGRSTESPIDFVVTDTISGSQNTDEAQITQSTISRFACRIVCDRNEPYTARIFAAGFDSSKNIFLGEKAAKWKNPDGHMDGLTTNGVLVMHPRGGFTEESQPGVWREISVCGDVYTLRETRSAQQRGKLVESETNVLQDGSLIDLCGATLLWRTADGLFHTPTQKHIEALRQEINAARPQCPVGLNTLAFPSINRKEVVEEKQPWAYLSCGHVHGYHNWGHRSDTEANERECPMCRTVGPYVPLWLGCEAGFYVDAGPPTHAFTPCGHVCSEKSAKYWSQIPLPHGTHAFHAACPFCATQLVGEQNCIKLIFQGPID

Variants of: B1
Settings: with irak1_human IRAK1, P51617
irak1_human IRAK1, P51617, sequence (P51617 whole entry, looked up): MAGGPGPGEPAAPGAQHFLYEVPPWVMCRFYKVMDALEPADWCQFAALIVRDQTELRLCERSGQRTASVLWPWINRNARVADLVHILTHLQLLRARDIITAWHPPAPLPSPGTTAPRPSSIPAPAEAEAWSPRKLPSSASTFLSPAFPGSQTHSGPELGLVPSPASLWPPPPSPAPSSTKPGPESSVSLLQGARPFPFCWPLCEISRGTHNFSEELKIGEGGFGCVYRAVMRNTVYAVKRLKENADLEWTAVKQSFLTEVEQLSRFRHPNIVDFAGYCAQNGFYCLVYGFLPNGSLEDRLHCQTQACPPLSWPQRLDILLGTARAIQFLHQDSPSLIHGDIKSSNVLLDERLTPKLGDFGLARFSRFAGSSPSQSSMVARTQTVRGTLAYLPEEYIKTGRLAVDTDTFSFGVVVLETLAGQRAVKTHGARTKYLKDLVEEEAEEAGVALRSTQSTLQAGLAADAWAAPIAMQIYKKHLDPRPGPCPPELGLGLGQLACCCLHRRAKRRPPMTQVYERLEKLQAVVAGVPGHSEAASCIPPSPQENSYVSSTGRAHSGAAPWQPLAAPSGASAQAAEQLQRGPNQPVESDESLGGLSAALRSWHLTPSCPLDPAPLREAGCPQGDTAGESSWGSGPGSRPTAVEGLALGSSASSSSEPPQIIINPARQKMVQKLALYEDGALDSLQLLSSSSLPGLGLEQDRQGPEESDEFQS

Row | Variant | effect of a mutation on the interaction
1 | R106A | disrupting interaction
2 | T187A;N188A | disrupting interaction
